The target in experiment [1] is 125I-[Threonine59]IGF-I binding sites in adult rat brain sections (level of the cerebellum and brain stem) (rat). Kind of experiment: displacement of 0.01 nM 125I-[Thr59]IGF-I from rat brain sections; competitor at .10 mM.
The target is the same in experiment [2]. Kind of experiment: displacement of 0.01 nM 125I-[Thr59]IGF-I from rat brain sections; competitor at 1 mM.
Experiment [3] shares this target. Kind of experiment: displacement of 0.01 nM 125I-[Thr59]IGF-I from rat brain sections; competitor at .25 mM.
Experiment [4] has the same target. The experiment can be described thus: displacement of 0.01 nM 125I-[Thr59]IGF-I from rat brain sections; competitor at .025 mM.

Percent max. bound data for two molecules are collected here from patent publication US6693076.

Consider SRVSRRSR [IGF-II(33-40)], for which the percent max. bound in experiment [1] is 82%; in experiment [2] it was 76%.
Take ALLETYCATPAKSE [IGF-II(54-67)]: the percent max. bound came to 167% in experiment [3] and 132% in experiment [4].
